{"source": "patent US20220162327A1", "about": "“ANTI-CCR5 AGENTS AND METHODS OF TREATMENT THAT BLOCK CANCER METASTASIS OR ENHANCE CELL DEATH INDUCED BY DNA DAMAGING CHEMOTHERAPY” (CytoDyn Inc., priority 2019, published 2022)", "key": {"[1]": {"system": "MDA-MB-231 cells", "experiment": "MTT assay, leronlimab combined with doxorubicin", "assay_type": "cell-based, human", "settings": "10 mg/ml leronlimab with different dose of doxorubicin, 3 days", "procedure": "FIG. 5A and FIG. 5B. […] The MTT assay was used to determine the relative cell number (FIG. 5A). The cells treated with maraviroc ([…]) combining with different dose of doxorubicin were used as positive control (FIG. 5B). Data are shown as mean±SEM for N=8."}, "[2]": {"system": "CCR5+ metastatic Triple Negative Breast Cancer", "experiment": "Phase Ib/II study, tumor imaging", "assay_type": "in vivo, human", "description": "The primary objective of Phase 1b is to determine the safety, tolerability and maximum tolerate dose (MTD) of PRO 140 in patients with TNBC, when combined with carboplatin to define a recommended Phase II dose of the combination. The primary objective of phase 2b is to evaluate the impact on progression-free survival (PFS) of the combination PRO 140 and carboplatin in patients with CCR5+ TNBC previously treated with anthracyclines and taxanes in neoadjuvant and adjuvant setting.\nThe baseline target lesion was identified in the right upper lung at the size of 25 mm. The lesion was described as pleural based, major fissure, soft tissue density nodule in the right hilum.\nEach treatment cycle consisted of 21 days. […] This treatment regimen was used for all subjects enrolled in the mTNBC study, unless otherwise indicated.\nScans were taken at the end of every two cycles (every 6 weeks). The subject had Scan 1 after six weeks, a Scan 2 after 12 weeks, and Scan 3 after 18 weeks (Table 4)."}, "[3]": {"target": "T1, CCR5 (Homo sapiens, UniProt P51681)", "T1 sequence (P51681 whole entry)": "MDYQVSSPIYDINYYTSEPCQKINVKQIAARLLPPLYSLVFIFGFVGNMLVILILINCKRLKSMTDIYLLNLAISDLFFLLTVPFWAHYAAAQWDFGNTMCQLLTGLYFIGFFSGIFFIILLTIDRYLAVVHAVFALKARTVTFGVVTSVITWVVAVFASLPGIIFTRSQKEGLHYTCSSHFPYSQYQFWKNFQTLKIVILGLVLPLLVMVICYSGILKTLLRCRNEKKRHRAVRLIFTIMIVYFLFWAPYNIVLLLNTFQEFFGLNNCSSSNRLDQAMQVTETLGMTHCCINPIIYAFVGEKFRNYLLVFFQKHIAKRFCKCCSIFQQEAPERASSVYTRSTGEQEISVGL", "settings": "CHO-K1 cells, cited from earlier work"}, "[4]": {"system": "HIV-1", "settings": "at concentrations that do not affect CCR5 chemokine receptor activity in vitro; cited from earlier work"}, "[5]": {"settings": "human, in vivo; cited from earlier work"}, "[6]": {"target": "T1, CCR5", "experiment": "CCL5 induced calcium responses in MDA-MB-231-CCR5 cells (Fluo-4, living cell image)", "assay_type": "cell-based", "set-up": "expressed in transfected cells; host or cells: MDA-MB-231 human breast cancer cell line (MDA-MB-231-CCR5)", "description": "FIG. 2A, FIG. 2B, FIG. 2C, and FIG. 2D. […] CCR5 activation induces calcium flux (Mueller et al., 2002; Petkovic et al., 2004). […] Fluo-4 was used as calcium concentration indicator. The CCR5 antagonist, vicriviroc, was used as positive control (FIGS. 2A and 2D)."}, "[7]": {"settings": "Subject 706-001, scan 3, with carboplatin"}, "[8]": {"settings": "Subject 706-001, with carboplatin"}}, "note": "“Also recorded” adds a separate entry of the source. Read-outs that look alike come from different tables or passages of the source."}
{"molecule": "leronlimab: humanized monoclonal antibody to CCR5; humanized version of the murine mAb PA14 (antibody, chains of the INN, looked up, V domains shown) VH: EVQLVESGGGLVKPGGSLRLSCAASGYTFSNYWIGWVRQAPGKGLEWIGDIYPGGNYIRNNEKFKDKTTLSADTSKNTAYLQMNSLKTEDTAVYYCGSSFGSNYVFAWFTYWGQGTLVTVSS VL: DIVMTQSPLSLPVTPGEPASISCRSSQRLLSSYGHTYLHWYLQKPGQSPQLLIYEVSNRFSGVPDRFSGSGSGTDFTLKISRVEAEDVGVYYCSQSTHVPLTFGQGTKVEIK", "values": [{"measurement": "cell death induced by doxorubicin", "setting": "[1]", "result": "augmented cell killing by DNA damage inducing agents including Doxorubicin; also recorded: enhances the cell death induced by doxorubicin"}, {"measurement": "decrease in size of target lesion", "setting": "[2]; [7]", "result": 20, "unit": "%"}, {"measurement": "new lung nodules", "setting": "[2]; [7]", "result": "no new lung nodules found"}, {"measurement": "decrease in size of target lesion (as measured by tumor volume)", "setting": "[2]; [8]", "result": "greater than 20%"}, {"measurement": "new lymphadenopathy or metastatic disease on diagnostic CT chest, abdomen and pelvis", "setting": "[2]; [8]", "result": "No new lymphadenopathy or metastatic disease reported"}, {"measurement": "right hilar lymph node", "setting": "[2]; [8]", "result": "resolved"}, {"measurement": "maximum standardized uptake values (SUVs) of right lung metastasis", "setting": "[2]; Subject 706-001, with carboplatin, previously 15.3", "result": 6.8}, {"measurement": "effect on chemotaxis", "setting": "[3]; administered with CCL5", "result": "reduces CCL5-induced chemotaxis"}, {"measurement": "effect on chemotaxis", "setting": "[3]; alone", "result": "does not affect chemotaxis of CHO-K1 cells"}, {"measurement": "inhibition of HIV-1 entry and replication", "setting": "[4]", "result": "potently inhibits HIV-1 entry and replication"}, {"measurement": "adverse events", "setting": "[5]", "result": "without significant adverse events reported"}, {"measurement": "effect on CCL5 induced calcium responses", "setting": "[6]", "result": "can block CCL5 induced calcium responses"}, {"measurement": "calcium response at calcium peak induce by CCL5", "setting": "[6]; Fluo-4, control cells 1.23±0.10, P<0.001", "result": "0.54±0.13"}, {"measurement": "effect on CCL5 induced calcium responses", "setting": "[6]; listed as Leronlimab", "result": "abrogated CCL5 induced Ca^+2 flux"}]}
